Patent publication US20210246166A1 (Bayer, published 2021)
Numbered stars: 1 amine (or outer) side, 2 acyl side, 3 side chain; on linkers, the order of the positions; unused ones are H or OH. Bridge positions count the residues as written; N and C are the ends. Square brackets hold non-standard residues; d marks the D form. Primed or numbered codes have the meaning given here. Ends that are not written are not given here. * marks the point of attachment. TTDS = 1,13-diamino-4,7,10-trioxatridecan-succinamic acid, O=C(CCC(=O)[*:2])NCCCOCCOCCOCCCN[*:1]; Tranexamic″ = tranexamic acid, NC[C@H]1CC[C@@H](C(=O)*)CC1; NH(CH2CH2O)5CH2CO = O=C(COCCOCCOCCOCCOCCN[*:1])[*:2]; NH(CH2CH2O)4CH2CO = O=C(COCCOCCOCCOCCN[*:1])[*:2]; Pro(4-spirocPr) = O=C(O)[C@@H]1CC2(CC2)CN1; Oic = O=C(O)[C@@H]1C[C@@H]2CCCC[C@@H]2N1; PEG8 = NCCOCCOCCOCCOCCOCCOCCOCCOCCC(=O)O; PEG7 = NCCOCCOCCOCCOCCOCCOCCOCCC(=O)O; PEG6 = NCCOCCOCCOCCOCCOCCOCCC(=O)O; tBuAla = CC(C)(C)C[C@H](N)C(=O)O; PEG5 = NCCOCCOCCOCCOCCOCCC(=O)O; PEG4 = NCCOCCOCCOCCOCCC(=O)O; Pen = CC(C)(S)[C@H](N)C(=O)O; Tranexamic = tranexamic acid; PEG3 = NCCOCCOCCOCCC(=O)O; Orn = NCCC[C@H](N)C(=O)O; Sar = CNCC(=O)O

T1: recombinant human MASP1 active protease (amino acids 297-699, C-terminal His Tag) (human, UniProt P48740 297-699)
T1 sequence: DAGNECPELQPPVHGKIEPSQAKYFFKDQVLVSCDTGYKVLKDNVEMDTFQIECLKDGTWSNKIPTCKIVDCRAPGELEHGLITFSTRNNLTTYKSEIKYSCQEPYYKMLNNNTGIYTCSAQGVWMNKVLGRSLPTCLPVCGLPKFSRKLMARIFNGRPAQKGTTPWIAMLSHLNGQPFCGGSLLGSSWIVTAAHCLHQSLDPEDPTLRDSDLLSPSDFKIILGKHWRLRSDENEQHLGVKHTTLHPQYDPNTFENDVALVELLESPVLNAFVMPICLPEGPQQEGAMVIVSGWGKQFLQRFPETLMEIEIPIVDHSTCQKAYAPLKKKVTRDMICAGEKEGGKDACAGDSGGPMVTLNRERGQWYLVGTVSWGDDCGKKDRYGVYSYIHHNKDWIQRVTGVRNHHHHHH

B1: Example 436: ((N-Me)G)-IC+SRSLP-(Oic)-I-(Pen)+IPP-((2S)-3-(Triazol-1-yl)-2-(amino)propanoic acid)-NH2 (peptide)
peptide: [Sar]ICSRSLP[Oic]I[Pen]IPP[(2S)‑3‑(Triazol-1-yl)‑2‑(amino)propanoic acid]-NH2
modifications: disulfide 3-11
B2: Example 430: ((N-Me)G)-IC+SRS-((tBu)A)-PPI-(Pen)+IP-(Orn)-(Orn)-(Orn)-NH2 (peptide)
peptide: [Sar]ICSRS[tBuAla]PPI[Pen]IP[Orn][Orn][Orn]-NH2
modifications: disulfide 3-11; N-terminus assumed
SMILES: CC[C@H](C)[C@H](NC(=O)CNC)C(=O)N[C@H]1CSSC(C)(C)[C@@H](C(=O)N[C@H](C(=O)N2CCC[C@H]2C(=O)N[C@@H](CCCN)C(=O)N[C@@H](CCCN)C(=O)N[C@@H](CCCN)C(N)=O)[C@@H](C)CC)NC(=O)[C@H]([C@@H](C)CC)NC(=O)[C@@H]2CCCN2C(=O)[C@@H]2CCCN2C(=O)[C@H](CC(C)(C)C)NC(=O)[C@H](CO)NC(=O)[C@H](CCCNC(=N)N)NC(=O)[C@H](CO)NC1=O
B3: Example 423: (Tranexamic)-IC+SRS-((tBu)A)-PPI-(Pen)+IP-(PEG3(16 atoms))-NH2 (peptide)
peptide: {Tranexamic″}-ICSRS[tBuAla]PPI[Pen]IP-{PEG4-NH2}
modifications: disulfide 2-10
SMILES: CC[C@H](C)[C@@H]1NC(=O)[C@@H]2CCCN2C(=O)[C@@H]2CCCN2C(=O)[C@H](CC(C)(C)C)NC(=O)[C@H](CO)NC(=O)[C@H](CCCNC(=N)N)NC(=O)[C@H](CO)NC(=O)[C@@H](NC(=O)[C@@H](NC(=O)[C@H]2CC[C@@H](CN)CC2)[C@@H](C)CC)CSSC(C)(C)[C@@H](C(=O)N[C@H](C(=O)N2CCC[C@H]2C(=O)NCCOCCOCCOCCOCCC(N)=O)[C@@H](C)CC)NC1=O
B4: Example 433: ((N-Me)G)-IC+SRS-((tBu)A)-PPI-(Pen)+IPD-((N-Me)G)-((N-Me)G)-((N-Me)G)-NH2 (peptide)
peptide: [Sar]ICSRS[tBuAla]PPI[Pen]IPD[Sar][Sar][Sar]-NH2
modifications: disulfide 3-11; N-terminus assumed
SMILES: CC[C@H](C)[C@H](NC(=O)CNC)C(=O)N[C@H]1CSSC(C)(C)[C@@H](C(=O)N[C@H](C(=O)N2CCC[C@H]2C(=O)N[C@@H](CC(=O)O)C(=O)N(C)CC(=O)N(C)CC(=O)N(C)CC(N)=O)[C@@H](C)CC)NC(=O)[C@H]([C@@H](C)CC)NC(=O)[C@@H]2CCCN2C(=O)[C@@H]2CCCN2C(=O)[C@H](CC(C)(C)C)NC(=O)[C@H](CO)NC(=O)[C@H](CCCNC(=N)N)NC(=O)[C@H](CO)NC1=O
B5: Example 417: AIC+SRSLPPIC+((2S,3S)-2-((Amino)methyl)-3-methylpentanoic acid)-PD-NH2 (peptide)
peptide: AICSRSLPPIC[(2S,3S)‑2‑((Amino)methyl)‑3‑methylpentanoic acid]PD-NH2
modifications: disulfide 3-11
B6: Example 421: (Tranexamic)-IC+SRS-((tBu)A)-PPI-(Pen)+IP-(PEG2(13 atoms))-NH2 (peptide)
peptide: {Tranexamic″}-ICSRS[tBuAla]PPI[Pen]IP-{PEG3-NH2}
modifications: disulfide 2-10
SMILES: CC[C@H](C)[C@@H]1NC(=O)[C@@H]2CCCN2C(=O)[C@@H]2CCCN2C(=O)[C@H](CC(C)(C)C)NC(=O)[C@H](CO)NC(=O)[C@H](CCCNC(=N)N)NC(=O)[C@H](CO)NC(=O)[C@@H](NC(=O)[C@@H](NC(=O)[C@H]2CC[C@@H](CN)CC2)[C@@H](C)CC)CSSC(C)(C)[C@@H](C(=O)N[C@H](C(=O)N2CCC[C@H]2C(=O)NCCOCCOCCOCCC(N)=O)[C@@H](C)CC)NC1=O
B7: Example 437: ((N-Me)G)-IC+SRSLP-(Oic)-I-(Pen)+IP-((2S)-3-(Triazol-1-yl)-2-(amino)propanoic acid)-NH2 (peptide)
peptide: [Sar]ICSRSLP[Oic]I[Pen]IP[(2S)‑3‑(Triazol-1-yl)‑2‑(amino)propanoic acid]-NH2
modifications: disulfide 3-11
B8: Example 427: (Tranexamic)-IC+SRS-((tBu)A)-PPI-(Pen)+IP-(PEG8(28 atoms))-NH2 (peptide)
peptide: {Tranexamic″}-ICSRS[tBuAla]PPI[Pen]IP-{PEG8-NH2}
modifications: disulfide 2-10
SMILES: CC[C@H](C)[C@@H]1NC(=O)[C@@H]2CCCN2C(=O)[C@@H]2CCCN2C(=O)[C@H](CC(C)(C)C)NC(=O)[C@H](CO)NC(=O)[C@H](CCCNC(=N)N)NC(=O)[C@H](CO)NC(=O)[C@@H](NC(=O)[C@@H](NC(=O)[C@H]2CC[C@@H](CN)CC2)[C@@H](C)CC)CSSC(C)(C)[C@@H](C(=O)N[C@H](C(=O)N2CCC[C@H]2C(=O)NCCOCCOCCOCCOCCOCCOCCOCCOCCC(N)=O)[C@@H](C)CC)NC1=O
B9: Example 438: ((N-Me)G)-IC+SRSLP-(Oic)-I-(Pen)+IP-((5-Azaspiro[2.4]heptane-1-carboxylic acid)-OH (peptide)
peptide: [Sar]ICSRSLP[Oic]I[Pen]IP[5‑Azaspiro(2.4)heptane‑1‑carboxylic acid]-OH
modifications: disulfide 3-11
B10: Example 418: AIC+SRSLP-(Oic)-I-(Pen)+IPN-OH (peptide)
peptide: AICSRSLP[Oic]I[Pen]IPN-OH
modifications: disulfide 3-11; N-terminus assumed
SMILES: CC[C@H](C)[C@H](NC(=O)[C@H](C)N)C(=O)N[C@H]1CSSC(C)(C)[C@@H](C(=O)N[C@H](C(=O)N2CCC[C@H]2C(=O)N[C@@H](CC(N)=O)C(=O)O)[C@@H](C)CC)NC(=O)[C@H]([C@@H](C)CC)NC(=O)[C@@H]2C[C@@H]3CCCC[C@@H]3N2C(=O)[C@@H]2CCCN2C(=O)[C@H](CC(C)C)NC(=O)[C@H](CO)NC(=O)[C@H](CCCNC(=N)N)NC(=O)[C@H](CO)NC1=O
B11: Example 424: (Tranexamic)-IC+SRS-((tBu)A)-PPI-(Pen)+IP-(PEG5-CH2CO2H (18 atoms))-NH2 (peptide)
peptide: {Tranexamic″}-ICSRS[tBuAla]PPI[Pen]IP-{NH(CH2CH2O)5CH2CO-NH2}
modifications: disulfide 2-10
SMILES: CC[C@H](C)[C@@H]1NC(=O)[C@@H]2CCCN2C(=O)[C@@H]2CCCN2C(=O)[C@H](CC(C)(C)C)NC(=O)[C@H](CO)NC(=O)[C@H](CCCNC(=N)N)NC(=O)[C@H](CO)NC(=O)[C@@H](NC(=O)[C@@H](NC(=O)[C@H]2CC[C@@H](CN)CC2)[C@@H](C)CC)CSSC(C)(C)[C@@H](C(=O)N[C@H](C(=O)N2CCC[C@H]2C(=O)NCCOCCOCCOCCOCCOCC(N)=O)[C@@H](C)CC)NC1=O
B12: Example 419: ((N-Me)G)-IC+SRSLP-(Oic)-I-(Pen)+I-((5-Azaspiro[2.4]heptane-1-carboxylic acid)-OH (peptide)
peptide: [Sar]ICSRSLP[Oic]I[Pen]I[5‑Azaspiro(2.4)heptane‑1‑carboxylic acid]-OH
modifications: disulfide 3-11
B13: Example 425: (Tranexamic)-IC+SRS-((tBu)A)-PPI-(Pen)+IP-(PEG5(22 atoms))-NH2 (peptide)
peptide: {Tranexamic″}-ICSRS[tBuAla]PPI[Pen]IP-{PEG6-NH2}
modifications: disulfide 2-10
SMILES: CC[C@H](C)[C@@H]1NC(=O)[C@@H]2CCCN2C(=O)[C@@H]2CCCN2C(=O)[C@H](CC(C)(C)C)NC(=O)[C@H](CO)NC(=O)[C@H](CCCNC(=N)N)NC(=O)[C@H](CO)NC(=O)[C@@H](NC(=O)[C@@H](NC(=O)[C@H]2CC[C@@H](CN)CC2)[C@@H](C)CC)CSSC(C)(C)[C@@H](C(=O)N[C@H](C(=O)N2CCC[C@H]2C(=O)NCCOCCOCCOCCOCCOCCOCCC(N)=O)[C@@H](C)CC)NC1=O
B14: Example 435: (Tranexamic)-IC+SRS-((tBu)A)-PPI-(Pen)+IP-(PEG4(19 atoms))-NH2 (peptide)
peptide: [Tranexamic]ICSRS[tBuAla]PPI[Pen]IP[PEG5]-NH2
modifications: disulfide 3-11
B15: Example 439: ((N-Me)G)-IC+SRS-((tBu)A)-P-((6S)-5-Azaspiro[2.4]heptane-6-carboxylic acid)-I-(Pen)+IP-NH2 (peptide)
peptide: [Sar]ICSRS[tBuAla]P[Pro(4-spirocPr)]I[Pen]IP-NH2
modifications: disulfide 3-11; N-terminus assumed
SMILES: CC[C@H](C)[C@H](NC(=O)CNC)C(=O)N[C@H]1CSSC(C)(C)[C@@H](C(=O)N[C@H](C(=O)N2CCC[C@H]2C(N)=O)[C@@H](C)CC)NC(=O)[C@H]([C@@H](C)CC)NC(=O)[C@@H]2CC3(CC3)CN2C(=O)[C@@H]2CCCN2C(=O)[C@H](CC(C)(C)C)NC(=O)[C@H](CO)NC(=O)[C@H](CCCNC(=N)N)NC(=O)[C@H](CO)NC1=O
B16: Example 429: (Tranexamic)-IC+SRS-((tBu)A)-PPI-(Pen)+IP-(TTDS)-NH2 (peptide)
peptide: [Tranexamic]ICSRS[tBuAla]PPI[Pen]IP[TTDS]-NH2
modifications: disulfide 3-11
B17: Example 426: (Tranexamic)-IC+SRS-((tBu)A)-PPI-(Pen)+IP-(PEG7(25 atoms))-NH2 (peptide)
peptide: {Tranexamic″}-ICSRS[tBuAla]PPI[Pen]IP-{PEG7-NH2}
modifications: disulfide 2-10
SMILES: CC[C@H](C)[C@@H]1NC(=O)[C@@H]2CCCN2C(=O)[C@@H]2CCCN2C(=O)[C@H](CC(C)(C)C)NC(=O)[C@H](CO)NC(=O)[C@H](CCCNC(=N)N)NC(=O)[C@H](CO)NC(=O)[C@@H](NC(=O)[C@@H](NC(=O)[C@H]2CC[C@@H](CN)CC2)[C@@H](C)CC)CSSC(C)(C)[C@@H](C(=O)N[C@H](C(=O)N2CCC[C@H]2C(=O)NCCOCCOCCOCCOCCOCCOCCOCCC(N)=O)[C@@H](C)CC)NC1=O
B18: Example 422: (Tranexamic)-IC+SRS-((tBu)A)-PPI-(Pen)+IP-(PEG4-CH2CO2H (15 atoms))-NH2 (peptide)
peptide: {Tranexamic″}-ICSRS[tBuAla]PPI[Pen]IP-{NH(CH2CH2O)4CH2CO-NH2}
modifications: disulfide 2-10
SMILES: CC[C@H](C)[C@@H]1NC(=O)[C@@H]2CCCN2C(=O)[C@@H]2CCCN2C(=O)[C@H](CC(C)(C)C)NC(=O)[C@H](CO)NC(=O)[C@H](CCCNC(=N)N)NC(=O)[C@H](CO)NC(=O)[C@@H](NC(=O)[C@@H](NC(=O)[C@H]2CC[C@@H](CN)CC2)[C@@H](C)CC)CSSC(C)(C)[C@@H](C(=O)N[C@H](C(=O)N2CCC[C@H]2C(=O)NCCOCCOCCOCCOCC(N)=O)[C@@H](C)CC)NC1=O

Key:
[1] = target: recombinant human MASP2 active protease (amino acids 297-686, C-terminal His Tag) (human, UniProt O00187 297-686); assay: cell-based or functional assay
[2] = target: T1, recombinant human MASP1 active protease …; assay: cell-based or functional assay

recombinant human MASP2 active protease (amino acids 297-686, C-terminal His Tag), sequence (O00187 other isoform, or with tags, fused parts or gaps limits assumed): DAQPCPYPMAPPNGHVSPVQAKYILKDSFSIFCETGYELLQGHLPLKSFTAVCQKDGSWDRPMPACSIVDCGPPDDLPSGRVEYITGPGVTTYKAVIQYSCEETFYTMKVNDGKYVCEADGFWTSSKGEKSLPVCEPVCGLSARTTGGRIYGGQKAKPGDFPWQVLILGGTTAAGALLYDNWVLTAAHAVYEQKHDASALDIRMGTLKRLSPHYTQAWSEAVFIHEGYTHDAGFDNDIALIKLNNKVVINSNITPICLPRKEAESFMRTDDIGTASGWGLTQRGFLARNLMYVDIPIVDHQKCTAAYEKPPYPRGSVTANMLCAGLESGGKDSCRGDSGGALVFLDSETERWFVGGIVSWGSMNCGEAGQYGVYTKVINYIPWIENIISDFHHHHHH

Binder	human MASP2 IC50 [1] [nM]	human MASP1 IC50 [2] [nM]
B1	44	2.3
B2	91	1.4
B3	12	5.7
B4	120	1.7
B5	17000	89
B6	9.8	5
B7	76	2.2
B8	15	10
B9	83	2.9
B10	130	1.8
B11	11	6.6
B12	100	5.1
B13	13	7.7
B14	17	9.2
B15	15	3.2
B16	12	6.9
B17	15	9.1
B18	12	8.1
